Results on three substances are retold here after patent publication US20220289857A1.

pKd: −log10 of the molar value. “And” between values parts separate entries of the source, which are not always exact repeats. Identical values can stand only once.

One may read the pKd as the negative decadic logarithm of the Kd, by convention in mol/L. The term koff denotes the rate constant with which the complex falls apart. A high value points to a short-lived complex. Broadly, the kon is the rate constant with which the complex forms. Higher therefore signals faster complex formation.

Assay [1] concerns the target human Fn14 (full length) on cells (human) (UniProt Q9NP84). Put plainly: cell-based or functional assay.
The target of assay [2] is cynomolgus macaque Fn14-GST (cynomolgus macaque (Macaca fascicularis)). Nature of the assay: SPR Biacore T200; cyno Fn14-GST captured by anti-GST, Fab analyte; average of two runs.
The target of assay [3] is His-SUMO-huFn14 (soluble human Fn14 aa 28-75 with N-terminal 6xHis-SUMO tag) (human). Put plainly: SPR Biacore T200; His-SUMO-huFn14 amine-coupled, Fab analyte; average of two runs.
Assay [4] addresses cynomolgus macaque Fn14-GST (cynomolgus macaque (Macaca fascicularis)). Put plainly: SPR Biacore T200; cyno Fn14-GST captured by anti-GST, Fab analyte; 1:1 fit.
In assay [5] the target is His-SUMO-huFn14 (soluble human Fn14 aa 28-75 with N-terminal 6xHis-SUMO tag) (human). Put plainly: SPR Biacore T200; His-SUMO-huFn14 amine-coupled, Fab analyte; 1:1 fit. For orientation: SPR reads the build-up and loss of mass on a sensor chip optically.

Chain of cynomolgus macaque Fn14-GST (cynomolgus macaque (Macaca fascicularis)) (chain, as listed by the source): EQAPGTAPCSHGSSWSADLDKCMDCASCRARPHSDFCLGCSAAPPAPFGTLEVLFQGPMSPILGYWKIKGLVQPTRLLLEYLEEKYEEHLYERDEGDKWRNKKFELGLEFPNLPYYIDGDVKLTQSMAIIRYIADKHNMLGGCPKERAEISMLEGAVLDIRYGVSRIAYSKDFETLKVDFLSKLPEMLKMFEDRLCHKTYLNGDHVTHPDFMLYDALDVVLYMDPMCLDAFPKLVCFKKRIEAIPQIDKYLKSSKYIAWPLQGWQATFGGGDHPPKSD
Chain of His-SUMO-huFn14 (soluble human Fn14 aa 28-75 with N-terminal 6xHis-SUMO tag) (human) (chain, as listed by the source limits assumed): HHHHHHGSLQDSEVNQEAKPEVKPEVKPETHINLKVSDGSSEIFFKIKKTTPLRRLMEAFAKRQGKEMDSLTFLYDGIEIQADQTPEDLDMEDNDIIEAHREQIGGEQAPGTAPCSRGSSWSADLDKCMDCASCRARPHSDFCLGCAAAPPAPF
Chain of human Fn14 (full length) on cells (human) (Q9NP84 28-129): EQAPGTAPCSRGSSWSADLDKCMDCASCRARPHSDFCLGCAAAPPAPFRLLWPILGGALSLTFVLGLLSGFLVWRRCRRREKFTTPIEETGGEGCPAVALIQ

With mIgG2b isotype control antibody, the ICAM-1 MFI on HRMC, 250 ng/mL rhTWEAK, mAb 0.1 µg/mL in assay [1] amounted to 34700 MFI.
Regarding mIgG1 isotype control antibody, the ICAM-1 MFI on HRMC, 250 ng/mL rhTWEAK, mAb 0.1 µg/mL in assay [1] is 33300 MFI.
As for ITEM-4 Fab (enzymatic digest), the pKd in assay [2] is 8.89; in assay [3], 8.79; in assay [4] it was 8.86 and 8.92; in assay [5], 8.74 and 8.84. Also, the koff was 0.00118 s⁻¹ and 0.00202 s⁻¹ in assay [4]; 0.00304 s⁻¹ and 0.00279 s⁻¹ in assay [5]. In addition, the on-rate constant (kon) in assay [4] is 1.31e+06 M⁻¹ s⁻¹ and 1.68e+06 M⁻¹ s⁻¹; in assay [5], 1.68e+06 M⁻¹ s⁻¹ and 1.94e+06 M⁻¹ s⁻¹.
